# Results: paper PMC3328597
# T1: dSLBP P231G RPD (Drosophila, UniProt Q9VAN6 173-276, P231G)
# T1 sequence: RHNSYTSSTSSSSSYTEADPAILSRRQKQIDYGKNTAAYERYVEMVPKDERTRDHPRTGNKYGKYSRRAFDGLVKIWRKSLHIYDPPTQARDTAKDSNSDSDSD
# Biological target: T1, dSLBP P231G RPD
# Test: NMR
binder,measurement,value
GGCCAAAGGCCCUUUUCAGGGCCACCCA (structured_RNA) [SL28-CG],binding result,binds
